Data on four molecules can be found in patent publication US20220056119A1 (Regeneron, published 2022).

The target in experiment [1] is T1, Activin A (human, UniProt P08476 311-426).
T1 construct: Homodimer of two betaA subunits; bought (R&D Systems #338-AC); also called inhibin-betaA dimer
T1 sequence: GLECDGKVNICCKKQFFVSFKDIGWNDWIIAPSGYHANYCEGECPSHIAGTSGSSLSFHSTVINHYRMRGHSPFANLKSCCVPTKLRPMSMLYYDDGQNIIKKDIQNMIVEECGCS
As to the kind of experiment: SPR, 5 nM Activin A + 15 nM binder over Follistatin-288 surface. The procedure:
(§1) The binding signal (RU) was measured at 150 seconds after the start of the injection, and this signal was subtracted by the measured RU value for a negative control reference surface to determine the specific binding signal.
In general terms: In SPR one partner is held on a chip, and binding of the other changes the refractive index at the surface.

The target of experiment [2] is T1, Activin A. Nature of the experiment: SPR, 5 nM Activin A + 30 nM binder over hActRIIA-hFc surface. The procedure:
as §1

Experiment [3] concerns the target T1, Activin A. As to the kind of experiment: SPR, 5 nM Activin A + 15 nM binder over hActRIIA-hFc surface. The method, then:
as §1

Experiment [4] concerns the target T1, Activin A. Nature of the experiment: SPR, 5 nM Activin A + 0.94 nM binder over hActRIIA-hFc surface. The method, then: as §1
For experiment [5], the target named is T1, Activin A. As to the kind of experiment: SPR, 5 nM Activin A + 3.75 nM binder over hActRIIA-hFc surface. The method, then:
as §1

The target in experiment [6] is T1, Activin A. Nature of the experiment: SPR, 5 nM Activin A + 0.00 nM binder (no inhibitor) over hActRIIA-hFc surface. The procedure:
as §1

Experiment [7] addresses T1, Activin A. As to the kind of experiment: cell-based or functional assay.
A further experiment concerns the target T2, Activin AB (human, UniProt P08476 311-426; P09529 293-407).
T2 chain 1: T1 sequence
T2 chain 2: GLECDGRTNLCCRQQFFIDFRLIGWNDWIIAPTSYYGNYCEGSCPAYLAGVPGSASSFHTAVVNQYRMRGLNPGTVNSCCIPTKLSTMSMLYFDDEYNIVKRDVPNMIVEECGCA
Nature of the experiment: cell-based or functional assay.

The target in the next experiment is T3, Activin AC (human, UniProt P55103 237-352).
T3 sequence 1: T1 sequence
T3 sequence 2: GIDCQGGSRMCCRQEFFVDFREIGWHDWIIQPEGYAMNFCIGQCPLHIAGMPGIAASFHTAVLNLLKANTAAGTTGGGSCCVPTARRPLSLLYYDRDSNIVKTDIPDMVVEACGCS
Nature of the experiment: cell-based or functional assay.

The target of another experiment is T4, Activin B (human, UniProt P09529 293-407).
T4 chain: T2 chain 2
As to the kind of experiment: cell-based or functional assay.

Experiment [8] addresses T1, Activin A. As to the kind of experiment: SPR, 5 nM Activin A + 60 nM binder over hActRIIA-hFc surface. The method, then:
as §1

For experiment [9], the target named is T1, Activin A. As to the kind of experiment: SPR, 5 nM Activin A + 0.94 nM binder over Follistatin-288 surface. The procedure: as §1
Experiment [10] concerns the target T1, Activin A. Nature of the experiment: SPR, 5 nM Activin A + 60 nM binder over Follistatin-288 surface. The procedure: as §1
In experiment [11] the target is T1, Activin A. Nature of the experiment: SPR, 5 nM Activin A + 1.88 nM binder over hActRIIA-hFc surface. The method, then: as §1
Experiment [12] addresses T1, Activin A. Nature of the experiment: SPR, 5 nM Activin A + 3.75 nM binder over Follistatin-288 surface. The method, then: as §1
Experiment [13] concerns the target T1, Activin A. As to the kind of experiment: SPR, 5 nM Activin A + 7.5 nM binder over Follistatin-288 surface. The procedure: as §1
For experiment [14], the target named is T1, Activin A. Nature of the experiment: SPR, 5 nM Activin A + 1.88 nM binder over Follistatin-288 surface. The procedure:
as §1

The target of experiment [15] is T1, Activin A. As to the kind of experiment: SPR, 5 nM Activin A + 0 nM binder (no inhibitor) over Follistatin-288 surface. The method, then:
as §1

The target in experiment [16] is T1, Activin A. Nature of the experiment: SPR, 5 nM Activin A + 7.50 nM binder over hActRIIA-hFc surface. The procedure:
as §1

In experiment [17] the target is T1, Activin A. Nature of the experiment: SPR, 5 nM Activin A + 30 nM binder over Follistatin-288 surface. The method, then: as §1
The target in experiment [18] is T5, Activin B (homodimer of two inhibin betaB subunits) (human, UniProt P09529 293-407).
T5 construct: Bought (R&D Systems #659-AB-025/CF)
T5 chain: T2 chain 2
As to the kind of experiment: SPR (Biacore), mAb captured by anti-Fc, Activin B injected, 25 C. The procedure:
Antibody-antigen association was monitored for 240 seconds while dissociation in buffer was monitored for 600 seconds. Kinetic association and dissociation rate constants were determined by processing and fitting the data using Scrubber software version 2.0c. Binding equilibrium dissociation constants (KD) and dissociative half-lives (t_{1/2}) were then calculated from the kinetic rate constants as: KD (M)=kd/kₐ and t_{1/2} (min)=[ln 2/(60*kd)]. (NB=no binding observed under the conditions used; NT=not tested).

B1: H4H10429P (antibody, human IgG4, V domains shown)
VH: QVQLVESGGGVVQPGRSLRLSCVASGFTVSSYGIHWVRQAPGKGLEWVSVIWYDGRNKDYADSVKGRFTISRDNSKNTVYLEMKGLRAEDTALYYCARDKTGDFDSWGQGTLVTVSS
VL: DIQMTQSPSSLSASVGDRVTITCRASQNINSFLSWYQQKPGKAPKFLIYDASSIQSGAPSRFSGSGSGTDFTLTISSLQPEDFATYYCQQSYSSPFTFGQGTKLEIK
On to B1, for which the “% bound RU w/ no inhibitor” value with Activin A [1] was found to be 1%; with Activin A [2], 1%; with Activin A [3], 1%; with Activin A [4], 87%; with Activin A [5] it was 19%; in the experiment with Activin A [6] it was 100%. In addition, the “% bound RU w/ no inhibitor” value with Activin A [8] amounted to 1%; in the experiment with Activin A [9], 97%; with Activin A [10], 3%; with Activin A [11], 66%; in the experiment with Activin A [12], 20%; with Activin A [13] it was 1%. For the same molecule, the “% bound RU w/ no inhibitor” value turned out to be 80% with Activin A [14], 100% with Activin A [15], 1% in the experiment with Activin A [16] and 2% in the experiment with Activin A [17]. In addition, the “IC50, inhibition of 100 pM Activin A in A204/CAGAx12-Luc luciferase bioassay” value with Activin A [7] is 1.6e-10 M. The “IC50, inhibition of 30 pM Activin AB in A204/CAGAx12-Luc luciferase bioassay” value in the experiment with Activin AB was found to be 2.9e-10 M. For the same molecule, the “IC50, inhibition of 4 nM Activin AC in A204/CAGAx12-Luc luciferase bioassay” value in the experiment with Activin AC came to 580 pM. Also, in the experiment with Activin B, the “IC50, inhibition of 50 pM Activin B in A204/CAGAx12-Luc luciferase bioassay” value stood at 7.9e-08 M.

B2: H4H10423P (antibody, human IgG4, V domains shown)
VH: QVQLQQSGPGLLKPSQTLSLTCAISGDSVSSNSAAWSWIRQSPSRGLEWLGRTYYRANWFNDYALSVKSRITINPVTSTNHFSLQLHSVTPEDTAVYYCAREGALGYYFDSWGQGTLVTVSS
VL: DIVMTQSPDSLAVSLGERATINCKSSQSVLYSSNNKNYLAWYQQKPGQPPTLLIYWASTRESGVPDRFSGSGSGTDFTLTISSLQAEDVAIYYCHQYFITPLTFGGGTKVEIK
As to B2, the “50 nM Ag Bound (RU)” value in experiment [18] was 4.7 RU.

B3: H4H10436P2 (antibody, human IgG4, V domains shown)
VH: QVQLVESGGGVVQPGRSLRLTCVASGFTVSSYGMHWVRQAPGKGLEWVAVMFYDESKKYYADSVKGRFTISRDNSKNTLYLQMNSLRVEDTAVYYCARDEQLDFEYWGQGTLVTVSS
VL: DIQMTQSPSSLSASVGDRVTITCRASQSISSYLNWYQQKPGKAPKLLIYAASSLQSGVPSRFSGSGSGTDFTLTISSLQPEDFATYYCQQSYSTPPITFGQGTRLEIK
Regarding B3, the “% bound RU w/ no inhibitor” value was 1% in the experiment with Activin A [1]; 2% with Activin A [2]; 2% with Activin A [3]; 75% in the experiment with Activin A [4]; 16% with Activin A [5]; 100% with Activin A [6]. For the same molecule, the “% bound RU w/ no inhibitor” value worked out at 2% with Activin A [8]; 78% in the experiment with Activin A [9]; 2% with Activin A [10]; 55% with Activin A [11]; 16% in the experiment with Activin A [12]; 1% in the experiment with Activin A [13]. Also, the “% bound RU w/ no inhibitor” value was determined as 61% with Activin A [14], 100% with Activin A [15], 2% with Activin A [16] and 2% in the experiment with Activin A [17]. Also, the “IC50, inhibition of 100 pM Activin A in A204/CAGAx12-Luc luciferase bioassay” value in the experiment with Activin A [7] amounted to 2e-10 M. Further, the “IC50, inhibition of 30 pM Activin AB in A204/CAGAx12-Luc luciferase bioassay” value with Activin AB was found to be 1.4e-10 M. For the same molecule, the “IC50, inhibition of 4 nM Activin AC in A204/CAGAx12-Luc luciferase bioassay” value with Activin AC came to 1300 pM. Moreover, the “IC50, inhibition of 50 pM Activin B in A204/CAGAx12-Luc luciferase bioassay” value with Activin B came to 1.3e-10 M.

B4: H4H10440P2 (antibody, human IgG4, V domains shown)
VH: EVQLVESGGGVVQPGGSLRLSCAASTFTFDDFAMHWVRQAPGKGLEWVSLITGDGGSTYYADPVKGRFTISRDNSKNSLYLQMNSLRTEDTALYYCVKDWWIAARPDYYYYGMDVWGQGTTVTVSS
VL: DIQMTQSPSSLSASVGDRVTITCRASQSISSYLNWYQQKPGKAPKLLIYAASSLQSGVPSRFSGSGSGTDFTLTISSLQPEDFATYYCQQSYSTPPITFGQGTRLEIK
Consider B4, for which the “% bound RU w/ no inhibitor” value in the experiment with Activin A [1] was determined as 2%; with Activin A [2], 3%; with Activin A [3] it was 4%; with Activin A [4], 75%; in the experiment with Activin A [5], 17%; in the experiment with Activin A [6] it was 100%. Besides, the “% bound RU w/ no inhibitor” value in the experiment with Activin A [8] was 3%; with Activin A [9], 76%; in the experiment with Activin A [10] it was 0%; with Activin A [11] it was 52%; with Activin A [12], 17%; with Activin A [13], 4%. In addition, the “% bound RU w/ no inhibitor” value with Activin A [14] was 57%; with Activin A [15] it was 100%; with Activin A [16], 6%; in the experiment with Activin A [17], 1%. For the same molecule, the “IC50, inhibition of 100 pM Activin A in A204/CAGAx12-Luc luciferase bioassay” value with Activin A [7] stood at 2.8e-10 M. Also, the “IC50, inhibition of 30 pM Activin AB in A204/CAGAx12-Luc luciferase bioassay” value with Activin AB is 4.3e-10 M. The “IC50, inhibition of 4 nM Activin AC in A204/CAGAx12-Luc luciferase bioassay” value in the experiment with Activin AC came out at 750 pM. In the experiment with Activin B, the “IC50, inhibition of 50 pM Activin B in A204/CAGAx12-Luc luciferase bioassay” value is 5.2e-09 M.
